Consider four molecules from patent US20120316071A1 (published 2012).

Where a chain is given by its changes, count along the chain named. Numbers in names are those of the source.

The target in assay [1] is T1, rHuman CD44/Fc Chimera, CF (R&D Systems Cat#3660-CD) (human, UniProt P16070 21-220).
T1 construct: Bought Fc chimera; Fc part of the bought chimera not given
In words: MSD Multispot ECL, antigen spotted on plate, Fab at 7.5 nM; blank spot 217.

Assay [2] deals with T2, rHuman Notch-1/Fc Chimera, CF (R&D Systems Cat#3647-TK) (human, UniProt P46531 19-526).
T2 construct: Bought Fc chimera; Fc part of the bought chimera not given
Described as above.

Assay [3] concerns the target T3, rHuman P-Cadherin/Fc Chimera, CF (R&D Systems Cat#861-PC) (human, UniProt P22223 108-654).
T3 construct: Bought Fc chimera; Fc part of the bought chimera not given
Described as above.

In assay [4] the target is T4, rHuman Erythropoietin R/Fc Chimera, CF (R&D Systems Cat#963-ER) (human, UniProt P19235 25-250).
T4 construct: Bought Fc chimera; also called EPO R/Fc; Epo R; Fc part of the bought chimera not given
T4 sequence (looked up): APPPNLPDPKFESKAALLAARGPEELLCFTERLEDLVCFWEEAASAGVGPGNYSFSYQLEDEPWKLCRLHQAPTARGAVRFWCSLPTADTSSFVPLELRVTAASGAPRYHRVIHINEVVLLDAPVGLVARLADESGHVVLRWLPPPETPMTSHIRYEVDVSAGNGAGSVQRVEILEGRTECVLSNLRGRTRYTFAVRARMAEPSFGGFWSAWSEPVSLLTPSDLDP
The assay is described as above.

For assay [5], the target named is T5, Recombinant Human DLL4 (R&D Systems Cat#1506-D4/CF) (human, UniProt Q9NR61 27-524).
T5 construct: Bought recombinant protein; also called rHuman DLL4; delta-like protein 4
The assay is described as above.

Assay [6] has as its target T6, rHuman Erythropoietin R/Fc Chimera, CF (R&D Systems Cat#963-ER) (human, UniProt P19235 25-250).
T6 construct: Bought Fc chimera; also called EPO R/Fc; EPO R; Fc part of the bought chimera not given
T6 sequence (looked up): T4 sequence (looked up)
Kind of assay: Multispot ECL (MSD) titration; antigen spotted on plate; Fab 1570 nM; blank spot 866.

The target of assay [7] is T7, rHuman HGF R/c-MET/Fc Chimera, CF (R&D Systems Cat#358-MT/CF) (human, UniProt P08581 25-932).
T7 construct: Bought Fc chimera; also called HGF R/Fc; hepatocyte growth factor receptor; Fc part of the bought chimera not given
T7 sequence (P08581 25-932, change not shown): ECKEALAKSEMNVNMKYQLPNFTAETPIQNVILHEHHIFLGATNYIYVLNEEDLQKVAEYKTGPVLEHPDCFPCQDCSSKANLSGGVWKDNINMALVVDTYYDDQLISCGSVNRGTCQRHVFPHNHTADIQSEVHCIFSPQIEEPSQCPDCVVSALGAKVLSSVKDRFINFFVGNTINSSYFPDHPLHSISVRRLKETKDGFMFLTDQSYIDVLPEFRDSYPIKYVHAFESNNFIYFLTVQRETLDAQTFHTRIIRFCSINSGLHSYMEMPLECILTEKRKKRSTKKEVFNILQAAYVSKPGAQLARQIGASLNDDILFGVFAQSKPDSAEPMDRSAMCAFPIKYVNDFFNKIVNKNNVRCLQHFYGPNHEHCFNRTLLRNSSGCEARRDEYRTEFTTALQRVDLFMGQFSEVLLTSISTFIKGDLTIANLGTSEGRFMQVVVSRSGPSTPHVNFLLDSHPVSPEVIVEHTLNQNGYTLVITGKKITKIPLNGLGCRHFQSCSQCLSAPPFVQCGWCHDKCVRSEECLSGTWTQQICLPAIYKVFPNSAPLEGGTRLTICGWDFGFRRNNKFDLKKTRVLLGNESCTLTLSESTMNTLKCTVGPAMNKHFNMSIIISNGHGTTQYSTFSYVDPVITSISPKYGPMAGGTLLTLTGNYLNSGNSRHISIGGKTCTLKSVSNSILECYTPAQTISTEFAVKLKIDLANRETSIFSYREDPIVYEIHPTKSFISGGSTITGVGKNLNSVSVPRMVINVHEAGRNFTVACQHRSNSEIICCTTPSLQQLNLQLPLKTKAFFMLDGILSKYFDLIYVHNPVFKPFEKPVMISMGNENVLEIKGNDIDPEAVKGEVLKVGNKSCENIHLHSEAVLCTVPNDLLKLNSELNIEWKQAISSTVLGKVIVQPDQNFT
Described as above.

The target in assay [8] is T8, Recombinant Human DLL4 (R&D Systems Cat#1506-D4/CF) (human, UniProt Q9NR61 27-524).
T8 construct: Bought recombinant protein; also called delta-like protein 4; rHuman DLL4
The assay is described as above.

The target of assay [9] is T9, rHuman P-Cadherin/Fc Chimera, CF (R&D Systems Cat#861-PC) (human, UniProt P22223 108-654).
T9 construct: Bought Fc chimera; Fc part of the bought chimera not given
The description is as above.

Assay [10] addresses T10, rHuman CD44/Fc Chimera, CF (R&D Systems Cat#3660-CD) (human, UniProt P16070 21-220).
T10 construct: Bought Fc chimera; Fc part of the bought chimera not given
The assay is described as above.

Assay [11] concerns the target T11, rHuman Notch-1/Fc Chimera, CF (R&D Systems Cat#3647-TK) (human, UniProt P46531 19-526).
T11 construct: Bought Fc chimera; Fc part of the bought chimera not given
The description is as above.

In assay [12] the target is T12, rHuman ErbB2/Fc Chimera, CF (R&D Systems Cat#1129-ER) (human, UniProt P04626 23-652).
T12 construct: Bought Fc chimera; also called human epidermal growth factor 2 receptor; Fc part of the bought chimera not given
Described as above.

In assay [13] the target is T13, rHuman IGF-1 sR (IGF-1 sR), CF (R&D Systems Cat#391-GR) (human, UniProt P08069 31-932).
T13 construct: Bought soluble receptor; also called insulin-like growth factor-1 soluble receptor
The assay is described as above.

For assay [14], the target named is T14, rHuman ErbB2/Fc Chimera, CF (R&D Systems Cat#1129-ER) (human, UniProt P04626 23-652).
T14 construct: Bought recombinant protein; Fc part of the bought chimera not given
Kind of assay: ECL Multispot (MSD), antigen spotted; Fab 5 (µM); blank 211.

Assay [15] concerns the target T15, rHuman Erythropoietin R/Fc Chimera, CF (R&D Systems Cat#963-ER) (human, UniProt P19235 25-250).
T15 construct: Bought recombinant protein; also called EPO R; EPO R/Fc; Fc part of the bought chimera not given
T15 sequence (looked up): T4 sequence (looked up)
The description is as above.

The target of assay [16] is T16, rHuman CD44/Fc Chimera, CF (R&D Systems Cat#3660-CD) (human, UniProt P16070 21-220).
T16 construct: Bought recombinant protein; Fc part of the bought chimera not given
Described as above.

Assay [17] concerns the target T17, rHuman IGF-1 sR, CF (R&D Systems Cat#391-GR) (human, UniProt P08069 31-932).
T17 construct: Bought recombinant soluble receptor; also called insulin-like growth factor-1 soluble receptor
In words: Multispot ECL (MSD), antigen spotted on plate, Fab 1000 nM; blank spot 1133.

Assay [18] deals with T18, Recombinant Human DLL4 (R&D Systems Cat#1506-D4/CF) (human, UniProt Q9NR61 27-524).
T18 construct: Bought recombinant protein; also called rHuman DLL4; delta-like protein 4
Described as above.

B1: Fab VH6-1_IGHD3-3*01_IGHJ4*01 & V4-3_IGLJ4*01 (Fab, V domains shown)
VH: QVQLQQSGPGLVKPSQTLSLTCAISGDSVSSNSAAWNWIRQSPSRGLEWLGRTYYRSKWYNDYAVSVKSRITINPDTSKNQFSLQLNSVTPEDTAVYYCAREYYDFWSGYYTDYFDYWGQGTLVTVSS
VL: QPVLTQPTSLSASPGASARLTCTLRSGINLGSYRIFWYQQKPESPPRYLLSYYSDSSKHQGSGVPSRFSGSKDASSNAGILVISGLQSEDEADYYCMIWHSSASFVFGGGTQLIIL
notes: Tested as a purified germline Fab made in E. coli; The VH was cloned into plasmid A (CH1 constant region, His6 and Flag tags) and the lambda VL into plasmid E (lambda CL)
On to B1, for which the ECL signal is 444 in assay [1]; 392 in [2]; 352 in assay [3]; 443 in [4]; 598 in assay [5].

B2: Fab VH1-46_IGHD3-10*01_IGHJ4*01 & O1_IGKJ1*01 (Fab, V domains shown)
VH: QVQLVQSGAEVKKPGASVKVSCKASGYTFTSYYMHWVRQAPGQGLEWMGIINPSGGSTSYAQKFQGRVTMTRDTSTSTVYMELSSLRSEDTAVYYCAREYYYGSGSYYNDYFDYWGQGTLVTVSS
VL: DIVMTQTPLSLPVTPGEPASISCRSSQSLLDSDDGNTYLDWYLQKPGQSPQLLIYTLSYRASGVPDRFSGSGSGTDFTLKISRVEAEDVGVYYCMQRIEFPSWTFGQGTKVEIKR
notes: Germline library Fab expressed in E. coli; VH was cloned into Plasmid A (CH1 constant region, His6 and Flag tags); The kappa VL was cloned into Plasmid C (kappa CL)
With B2, the ECL signal was 6120 in assay [6]; 1640 in [7]; 2700 in assay [8]; 1790 in assay [9]; 1380 in [10]; 1640 in [11]. Moreover, the ECL signal in assay [12] amounted to 1260; in assay [13] it was 1430.

B3: Fab VH1-46_IGHD6-6*01_IGHJ1*01 S102A/S103P/S104F (APF) & L6_IGKJ1*01 (Fab, V domains shown)
VH: QVQLVQSGAEVKKPGASVKVSCKASGYTFTSYYMHWVRQAPGQGLEWMGIINPSGGSTSYAQKFQGRVTMTRDTSTSTVYMELSSLRSEDTAVYYCAREEYAPFSAEYFQHWGQGTLVTVSS
VL: not shown
notes: Tested as a Fab made in E. coli: VH cloned in Plasmid A (CH1 constant region, His6 and Flag tags), VL in Plasmid C (kappa constant region); also called H:APF & L:wt; APF triple mutant
For the molecule B3, the ECL signal in [14] worked out at 401; in [15], 423; in [16] it was 343.

B4: Fab VH1-46_IGHD6-13*01_IGHJ4*01 & B3_IGKJ1*01 (Fab, V domains shown)
VH: B3 VH with E100G, A102S, P103S, F104S, S105W, A106Y, E107D, Q110D, H111Y
VL: not shown
notes: Germline Fab made in E. coli; VH was cloned into Plasmid A (CH1, His6 and Flag tags) and the kappa VL into Plasmid C (kappa CL)
For the molecule B4, the ECL signal in [17] is 1670; in assay [18], 2780.
